Measurements as given in the RNAGym collection of RNA variant scans (doi:10.1073/pnas.2313332121).

B1: TPR t1 (parent)
chain: GACCAAUCUGCCCUCAGAGCUCGAGAACAUCUUCGGAUGCAGAGGAGGCAGGCUUCGGUGGCGCGAUAGCGCCAACGUCCUCAACCUCCAAUGCAUCCCACCACAUGAUGAUGCCUGAAGAGCCUUGGUUUUUUG

Variants of: B1
Experiment: polymerase ribozyme fitness, log enrichment relative to wild type (log ratio); higher = more active; in vitro selection for triplet polymerase activity
Summary of the method: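 Frozen incubation at −7 °C formed the core of a single, triplicate in vitro selection round applied to PCR-built, transcribed mutant libraries of each subunit of a heterodimeric triplet polymerase ribozyme. Extended constructs were gel-excised, captured with streptavidin beads and amplified by RT-PCR, and input and output libraries were Illumina-sequenced with a filter of ≥10 input reads and ≥1 read per output. Fitness is the logarithm of genotype enrichment relative to wild-type enrichment, with inverse-variance-weighted replicate averaging, and the logarithm is base 2.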

Variant	polymerase ribozyme fitness (log ratio)
GACCAUUCUGCCCUCAGAGCUCGAGAACAUCUUCGGAUGCAGAGGAGGCAGGCAUCGGUGGCGCGAUAGCGCCAACGUCCUCAACCUCCAAUGCAUCCCACCACAUGAUGAUGCCUGAAGAGCCUUGGUUUUUUG [A6U U54A]	-0.507
GACCAUUCUGCCCUCAGAGCUCGAGAACAUCUUCGGAUGCAGAGGAGGCAGGCUUCGGUGGCGCGAUAGCGCCAACGUCCUCAACCUCCAAGGCAUCCCACCACAUGAUGAUGCCUGAAGAGCCUUGGUUUUUUG [A6U U92G]	-2.92
GACCAUUCUGCCCUCAGAGCUCGAGAACAUCUUCGGAUGCAGAGGAGGCAGGCUUCGGUGGCGCGAUAGCGCCAACGACCUCAACCUCCAAUGCAUCCCACCACAUGAUGAUGCGGGAAGAGCCUUGGUUUUUUG [A6U U78A C115G U116G]	-2.95
GACCAAACUGCCCUCCGAGCUCGAGAACAUCUUCGGAUGCAGAGGAGGCAGGCUUCGGUGGCGCGAUAGCGCCAACGUCCUCAACCUCCAAUGCAUCCCACCACAUGAUGAUGCAUGAAGAGCCUUGGUUUUUUG [U7A A16C C115A]	-2.49
GACCAAACUGCCCUCUGAGCUCGAGAACAUCUUCGGAUGCAGAGGAGGUAGGCUUCGGUGGCGCGAUAGCGCCAACGUCCUCAACCUCCAAUGCAUCCCACCACAUGAUGAUGCCUGAAGAGCUUUGGUUUUUUG [U7A A16U C49U C124U]	1.1
GACCAUUCUGCCCACAGAGCUCGAGAACAUCUUCGGAUGCAGAGGAGGCAGGCUUCGGUGGCGCGAUAGCGCCAACGUCCUCAACAUCCAAUGCAACCCACCACAUGAUGAUGCCUGAAGAGCCUUGGUUUUUUG [A6U U14A C86A U96A]	-6.24
GACCAAACUGCCCUCAGAGCUCGAGAACAUCUUCGGAUGCAGAGGAGGCUGGCUUCGGUGGCGUGAUAGCGCCAACGUCCUCAACCUCCAAUGCAUCCCACCACAUGAUGAUGCCUGAAGAGCCUUGGUUUUUUG [U7A A50U C64U]	-0.349
GACCAUUCUGCCCUCAGAGCUCGAGAACAUCUUCGGAUGCAGAGGAGGCAGGCUUCGGUGGCGCGAUAGCGCCAACGUCCUCAACCUCCAAUGCAUCCCACCACAUGAUGAUGCCUGAAGAGCCUUGAUUUUUUG [A6U G128A]	-2.02
GACCAUUCGGCCCUCAGAGCUCGAGAACAUCUUCGGAUGCAGAGGAGGCAGGCUUCGGUGGCCCGAUAGCGCCAACGUCCUCAACCUCCAAUGCAUCCCACCAUAUGAUGAUGCUUUAAGAGCCUUGGUUUUUUG [A6U U9G G63C C104U C115U G117U]	-1.31
GACCAUUCGGCCCUCAGAGCUCGAGAACAUCUUCGGAUGCAGAGGAGGCAGGCUUCGGUGGCACGAUAGCGCCAACGUCCUCAACCUCCAAUGCAUCCCACCAUAUGAUGAUGCUUUAAGAGCCUUGGUUUUUUG [A6U U9G G63A C104U C115U G117U]	-3.69
GACCAAACUGCCCUCAGAGCUCGAGAACAUCUUCGGAUGCAGAGGAGGCAGGCUUCGGUGGCGCGGUAGCGCCAACGUCCUCAACCCCCAAUGUAUCCCACCACAUGAUUAUGCCUGAAGAGCCUUGGUUUUUUG [U7A A66G U87C C94U G110U]	-2.5
GACCAUUCCGCCCUCAGAGCUCGAGAACAUCUUCGGAUGCAGAGGAGGCAGGCUCCGGUGGCGCGAUAGCGCCAGCGUCCUCAACCUCCAAUGCCUCCCACCACAUGAUAAUGCCUGAAGAGCCUUGGUUUUUUG [A6U U9C U55C A75G A95C G110A]	-1.37
GACCAUGGUGCCCUCAGAGCUCGAGAACAUCUUCGGAUGCAGAGGAGGCAGGCUUAGGUGGCACGAUAGCGCCAACGUCCUCAACCUCCAAUGCAUCCCACCACAUGAUGAUGCCUGAAGAGCCUUGGUUUUUUG [A6U U7G C8G C56A G63A]	-2.06
GACCAAAAUGUCCUCAGAGCUCGAGAACAUCUUUGGAUGCAGAGGAGUCAGGAUUCGGUGGCGCGAUAGCGACAACGUCCUCAACCUCCAAUGCAUCCCACCACAUGAUGAUGCCUGAAGAGCCUUGGUUUUUUG [U7A C8A C11U C34U G48U C53A C72A]	-5.13
GACCAAACUGCCCUCAGAGCUCGAGAACAUCUUCGGAUGCAGUGGAGGCAGGCUUCGGUGGCGCGAUAGCGCCAACGUCCUCAACCUCCAAUGCAUCCCACCACAUGAUGAUGCCUGAAGAGCCUUGGUUUUUUG [U7A A43U]	-1.13
GACCAAACUGCCCUCAGAGCUCGAGAACAUCUUCGGAUGCAGAGGAGGCAGGCUUCGGUGGCGCGAUAGCGCCGACGUCCUCAACCUCCAAUGCAUCCCACCACAUGAUGAUGCCUGAAGAGCCUUGGUUUUUUG [U7A A74G]	-0.408
GACCAAACUGCCCUCAGAGCUCGAGAACAUCUUCGGAUGCAGAGGAGGCAGGCUUCGGUGGCGCGUUAGCGCCAACGUCCUCAACCUCCAAUGCAUCUCACCACAUGAUGAUGCCUGAAGAGCCUUGGUUUUUUG [U7A A66U C98U]	-1.89
GACCAAAAUGCCCUCAGAUCUCGAGAACAUCUUCGGAUGCAGAGGAGGCAGGCUUCGGUGGCGCGAUAGCGCCAACGUCCUCAACCUCCAAUGCAUGCCACCACGUGAUGAUGCCUGAAGAGCUUUGGUUUUUUG [U7A C8A G19U C97G A105G C124U]	-7.51
GACCAAAGUGCCCUCCGAGCUCGAGAACAUCUUCGGAUGCAGAGGUGGCAGGCUUCGGUGGCGCGAUAGCGCCAACGUCCUCAACCUCCAAUGCAUCCCACCACAUGAUGAUGCCUGAAGAGCCUUGGUUUUUUG [U7A C8G A16C A46U]	-0.61
GACCAAACUGCCCUCAGAGCUCGAGAACAUCUUCGGUUGCAGAGGAGGCAGGCUUCGGUGGCGCGAUAGCGCCAACGACCUCAACCUCCAAUGCAUCCCACCACAUGAUGAUGCCUGAAGAGCCUUGGUUUUUUG [U7A A37U U78A]	0.116
GACCAAACUGCCCUCAGAGCUCGAGAACAUCUUCGGAUGCAGCGGAGGCAGGCUUCGGUGGCGCGAUAGCGCCAACGUCCUCAACCUCCAAUGCAUCCCACCACAUGAUGAUGCCUGAAGAGCCUUGGGUUUUUG [U7A A43C U129G]	-4.22
